Source: patent publication US20030219386

Target: soluble recombinant uPAR (suPAR), expressed in Drosophila S2 cells (UniProt Q03405)
Sequence (Q03405 23-299): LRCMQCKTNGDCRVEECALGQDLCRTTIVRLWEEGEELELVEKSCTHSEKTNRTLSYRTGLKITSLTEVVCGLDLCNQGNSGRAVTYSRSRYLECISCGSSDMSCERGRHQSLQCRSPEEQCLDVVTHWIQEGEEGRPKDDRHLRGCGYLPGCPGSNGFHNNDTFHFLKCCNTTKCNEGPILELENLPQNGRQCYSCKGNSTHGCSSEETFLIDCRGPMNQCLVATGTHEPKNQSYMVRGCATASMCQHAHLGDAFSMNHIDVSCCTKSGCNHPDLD

For “recombinant human single chain urokinase plasminogen activator (scuPA), wild-type, aa1-411 of the mature human sequence, expressed in Drosophila S2 cells”, which “activity of scuPA in complex with suPAR” value is on record?
The value was “scuPA prepared in this manner was active in complex with suPAR as well as when activated by plasmin”.
